Biological target: Slik coiled-coil C-terminal domain (Slik^CCD) (Drosophila)
Experiment: SEC; purified Slik^CCD on a Superdex 75 10/300 column in 20 mM Tris-HCl pH 7.5, 150 mM NaCl, 2 mM DTT; elution peak at 95.45 kDa

stoichiometry N: 2
Substance: Slik coiled-coil C-terminal domain (Slik^CCD) (domain or fragment)
